Consider one substance from patent publication US20210147566A1.

The target of this assay is human transferrin receptor (TFR) on Raji cells (human) (UniProt P02786). Put plainly: FACS on Raji cells, secondary antibody without IgG1 clone [CONTINUED].
Sequence of human transferrin receptor (TFR) on Raji cells (human) (P02786 whole entry): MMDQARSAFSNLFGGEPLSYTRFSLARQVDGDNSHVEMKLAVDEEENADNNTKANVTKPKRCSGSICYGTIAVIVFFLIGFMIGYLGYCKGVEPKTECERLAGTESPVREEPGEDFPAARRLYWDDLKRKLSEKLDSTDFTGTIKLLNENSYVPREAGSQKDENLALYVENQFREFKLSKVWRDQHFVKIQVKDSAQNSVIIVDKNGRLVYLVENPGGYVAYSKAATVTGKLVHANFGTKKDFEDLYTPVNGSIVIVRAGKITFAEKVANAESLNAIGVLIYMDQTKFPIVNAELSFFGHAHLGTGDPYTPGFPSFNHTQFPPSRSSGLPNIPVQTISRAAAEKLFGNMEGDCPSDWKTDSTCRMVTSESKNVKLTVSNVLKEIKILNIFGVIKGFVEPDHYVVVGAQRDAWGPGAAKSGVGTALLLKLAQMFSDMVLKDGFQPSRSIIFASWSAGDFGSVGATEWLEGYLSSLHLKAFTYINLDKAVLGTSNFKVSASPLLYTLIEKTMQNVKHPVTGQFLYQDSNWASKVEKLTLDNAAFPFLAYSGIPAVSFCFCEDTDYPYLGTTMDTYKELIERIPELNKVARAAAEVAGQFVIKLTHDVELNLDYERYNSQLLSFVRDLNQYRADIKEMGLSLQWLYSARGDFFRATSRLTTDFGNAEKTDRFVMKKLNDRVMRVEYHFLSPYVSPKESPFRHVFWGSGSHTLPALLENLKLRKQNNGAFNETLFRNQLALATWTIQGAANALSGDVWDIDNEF

For ANTI-FAB ALEXA FLUOR 647 (antibody), the TFR gate, percent of cells is 19.1.
